# Laboratory results from patent US20220025056A1 (INNATE PHARMA, published 2022).
# Read-outs that look alike come from different tables or passages of the source.
# Tests used:
# [1] = target: T1, human ILT1 (LILRA2) on CHO cells (human, UniProt Q8N149 24-475); assay: flow cytometry, CHO transfectants
# T1 construct: also called CHO ILT1 cell line
# [2] = target: T2, human ILT3 (LILRB4) on CHO cells (human, UniProt Q8NHJ6 24-443); assay: flow cytometry, CHO transfectants
# T2 construct: also called CHO ILT3 cell line
# [3] = target: T3, human ILT4 (LILRB2) on CHO cells (human, UniProt Q8N423 23-597); assay: flow cytometry, CHO transfectants
# T3 construct: also called CHO ILT4 cell line
# [4] = target: T4, human ILT5 (LILRB3) on CHO cells (human, UniProt O75022 24-626); assay: flow cytometry, CHO transfectants
# T4 construct: also called CHO ILT5 cell line
# [5] = target: T5, human ILT6 (LILRA3) on CHO cells (human, UniProt Q8N6C8 24-434); assay: flow cytometry, CHO transfectants
# T5 construct: also called CHO ILT6 cell line; human ILT-6 polypeptide
# [6] = target: T6, human ILT7 (LILRA4) on CHO cells (human, UniProt P59901 28-494); assay: flow cytometry, CHO transfectants
# T6 construct: also called CHO ILT7 cell line
# [7] = target: T7, human ILT8 (LILRA6) on CHO cells (human, UniProt Q6PI73 24-477); assay: flow cytometry, CHO transfectants
# T7 construct: also called CHO ILT8 cell line
# [8] = target: T8, human ILT2 (LILRB1) expressed at the surface of transfected cells (human, UniProt Q8NHL6 24-650); assay: flow cytometry, CHO-ILT2 cells
# T8 construct: also called CHO-ILT2; CHO ILT2 cell line
# Method: Cells were incubated with various concentrations of unlabeled anti-ILT2 antibodies from 30 μg/ml to 5×10-⁴ μg/ml, for 30 minutes at 4° C. After washes with staining buffer, cells were incubated for 30 min at 4° C. with Goat anti-human H+L AF488 secondary antibody (Jackson Immunoresearch #109-546-088) or Goat anti-mouse H+L AF488 secondary antibody for commercially available antibodies (Jackson Immuoresearch #115-545-146). Fluorescence was measured on an Accury C6 flow cytometer equipped with an HTFC plate loader.
# [9] = target: T9, anchored ILT2 D2 domain protein (human); assay: flow cytometry, CHO cells with anchored ILT2 domain proteins
# T9 construct: on CHO cells; the entry includes leader remnant, V5 tag and CD24 GPI anchor signal
# [10] = target: T10, anchored ILT2 D2-D3 domain protein (human, UniProt Q8NHL6 122-321); assay: as above
# T10 construct: on CHO cells; the entry includes leader remnant, V5 tag and CD24 GPI anchor signal
# [11] = target: T11, anchored ILT2 D3-D4 domain protein (human, UniProt Q8NHL6 223-650); assay: as above
# T11 construct: on CHO cells; the entry includes leader remnant, V5 tag, and the ILT2 transmembrane and cytoplasmic parts
# [12] = target: T12, anchored ILT2 D2-D3-D4 domain protein (human, UniProt Q8NHL6 122-650); assay: as above
# T12 construct: on CHO cells; the entry includes leader remnant, V5 tag, and the ILT2 transmembrane and cytoplasmic parts
# [13] = target: T13, ILT-2_6xHis recombinant protein (human, UniProt Q8NHL6 24-458); assay: SPR, antibody captured on Protein-A, soluble ILT2 analyte; two state fit
# T13 construct: monomers purified by SEC; also called recombinant 6xHIS tagged ILT2; recombinant human ILT2 proteins
# Method: Measurements were performed on a Biacore T200 apparatus (Biacore GE Healthcare) at 25° C. In all Biacore experiments HBS-EP+(Biacore GE Healthcare) and NaOH 10 mM served as running buffer and regeneration buffer respectively. Sensorgrams were analyzed with Biacore T100 Evaluation software. Protein-A was purchased from (GE Healthcare). Human ILT2 recombinant proteins were cloned, produced and purified at Innate Pharma. Protein-A proteins were immobilized covalently to carboxyl groups in the dextran layer on a Sensor Chip CM5. The chip surface was activated with EDC/NHS (N-ethyl-N′-(3-dimethylaminopropyl) carbodiimidehydrochloride and N-hydroxysuccinimide (Biacore GE Healthcare)). Protein-A was diluted to 10 μg/ml in coupling buffer (10 mM acetate, pH 5.6) and injected until the appropriate immobilization level was reached (i.e. 600 RU). Deactivation of the remaining activated groups was performed using 100 mM ethanolamine pH 8 (Biacore GE Healthcare). […] For blank subtraction, cycles were performed again replacing ILT2 proteins with running buffer. The monovalent affinity analysis was conducted following a regular Capture-Kinetic protocol as recommended by the manufacturer (Biacore GE Healthcare kinetic wizard). […]
# [14] = target: T14, ILT2 mutant 1 (human, UniProt Q8NHL6 24-650); assay: flow cytometry titration on HEK293T cells transfected with ILT2 mutant 1
# T14 construct: transfected in HEK293T cells; also called M1
# [15] = target: T15, ILT2 mutant 2 (human, UniProt Q8NHL6 24-650); assay: flow cytometry titration on HEK293T cells transfected with ILT2 mutant 2
# T15 construct: transfected in HEK293T cells; also called M2
# [16] = target: T16, anchored ILT2 D4 domain protein (human, UniProt Q8NHL6 322-650); assay: flow cytometry on CHO cells expressing the anchored ILT2 D4 domain protein (SEQ ID NO: 49); stacked histograms, axis without numbers
# T16 construct: on CHO cells; the entry includes leader remnant, V5 tag, and the ILT2 transmembrane and cytoplasmic parts
# [17] = target: T17, anchored ILT2 D3 domain protein (human); assay: flow cytometry on CHO cells expressing the anchored ILT2 D3 domain protein (SEQ ID NO: 48); stacked histograms, axis without numbers, no control histogram
# T17 construct: on CHO cells; the entry includes leader remnant, V5 tag and CD24 GPI anchor signal
# [18] = target: T18, human ILT2 on primary NK cells (human, UniProt Q8NHL6 24-650); assay: flow cytometry, primary NK cells
# T18 construct: whole, on cells
# [19] = target: T8, human ILT2 (LILRB1) expressed at the …; assay: flow cytometry titration on HEK293T cells transfected with wild-type ILT2
# [20] = target: T19, anchored ILT2 D1-D2 domain protein (human, UniProt Q8NHL6 24-222); assay: flow cytometry, CHO cells with anchored ILT2 domain proteins
# T19 construct: on CHO cells; the entry includes leader remnant, V5 tag and CD24 GPI anchor signal
# [21] = target: T20, anchored ILT2 D1-D2-D3 domain protein (human, UniProt Q8NHL6 24-321); assay: as above
# T20 construct: on CHO cells; the entry includes leader remnant, V5 tag and CD24 GPI anchor signal
# [22] = target: T13, ILT-2_6xHis recombinant protein; assay: SPR, antibody captured on Protein-A, soluble ILT2 analyte
# Method: Measurements were performed on a Biacore T200 apparatus (Biacore GE Healthcare) at 25° C. In all Biacore experiments HBS-EP+(Biacore GE Healthcare) and NaOH 10 mM served as running buffer and regeneration buffer respectively. Sensorgrams were analyzed with Biacore T100 Evaluation software. Protein-A was purchased from (GE Healthcare). Human ILT2 recombinant proteins were cloned, produced and purified at Innate Pharma. Protein-A proteins were immobilized covalently to carboxyl groups in the dextran layer on a Sensor Chip CM5. The chip surface was activated with EDC/NHS (N-ethyl-N′-(3-dimethylaminopropyl) carbodiimidehydrochloride and N-hydroxysuccinimide (Biacore GE Healthcare)). Protein-A was diluted to 10 μg/ml in coupling buffer (10 mM acetate, pH 5.6) and injected until the appropriate immobilization level was reached (i.e. 600 RU). Deactivation of the remaining activated groups was performed using 100 mM ethanolamine pH 8 (Biacore GE Healthcare). […] For blank subtraction, cycles were performed again replacing ILT2 proteins with running buffer. The monovalent affinity analysis was conducted following a regular Capture-Kinetic protocol as recommended by the manufacturer (Biacore GE Healthcare kinetic wizard). Seven serial dilutions of human ILT2 proteins, ranging from 1.95 nM to 250 nM were sequentially injected over the captured antibodies and allowed to dissociate for 10 min before regeneration. The entire sensorgram sets were fitted using the 1:1 kinetic binding model or two state reaction model, as a function of the profile of the curves.
# [23] = target: T21, ILT2 mutant 4-1 (human, UniProt Q8NHL6 24-650); assay: flow cytometry titration on HEK293T cells transfected with ILT2 mutant 4-1
# T21 construct: transfected in HEK293T cells
# [24] = target: T22, ILT2 mutant 4-2 (human, UniProt Q8NHL6 24-650); assay: flow cytometry titration on HEK293T cells transfected with ILT2 mutant 4-2
# T22 construct: transfected in HEK293T cells
# [25] = target: T23, Mutant D4-4; assay: flow cytometry titration on HEK293T cells transfected with ILT2 mutant 4-4
# T23 construct: also called ILT2 mutant 4-4; mutant 4-4
# [26] = target: T24, Mutant D4-1B; assay: flow cytometry titration on HEK293T cells transfected with ILT2 mutant 4-1b
# T24 construct: read as S304F; also called ILT2 mutant 4-1b; mutant 4-1b
# [27] = target: T25, anchored ILT2 D1 domain protein (human); assay: flow cytometry on CHO cells expressing the anchored ILT2 D1 domain protein (SEQ ID NO: 46); stacked histograms, axis without numbers
# T25 construct: on CHO cells; the entry includes leader remnant, V5 tag and CD24 GPI anchor signal
# [28] = target: T18, human ILT2 on primary NK cells; assay: cell-based or functional assay
# [29] = target: T8, human ILT2 (LILRB1) expressed at the …; assay: flow cytometry titration on HEK293T cells transfected with wild-type ILT2; remark: listed apart in the source
# T1 sequence (Q8N149 other isoform, or with tags, fused parts or gaps): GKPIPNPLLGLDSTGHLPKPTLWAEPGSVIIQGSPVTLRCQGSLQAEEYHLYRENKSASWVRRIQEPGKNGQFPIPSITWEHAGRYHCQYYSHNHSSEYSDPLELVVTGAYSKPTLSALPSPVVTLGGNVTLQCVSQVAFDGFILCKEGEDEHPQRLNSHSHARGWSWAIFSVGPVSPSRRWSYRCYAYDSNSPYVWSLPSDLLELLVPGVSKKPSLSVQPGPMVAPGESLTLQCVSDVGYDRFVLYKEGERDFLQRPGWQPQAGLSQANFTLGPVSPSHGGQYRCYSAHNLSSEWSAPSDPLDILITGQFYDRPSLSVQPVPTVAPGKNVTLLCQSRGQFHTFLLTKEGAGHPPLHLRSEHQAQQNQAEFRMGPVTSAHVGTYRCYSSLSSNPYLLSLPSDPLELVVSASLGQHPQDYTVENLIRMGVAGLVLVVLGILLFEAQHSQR
# T4 sequence (O75022 other isoform, or with tags, fused parts or gaps): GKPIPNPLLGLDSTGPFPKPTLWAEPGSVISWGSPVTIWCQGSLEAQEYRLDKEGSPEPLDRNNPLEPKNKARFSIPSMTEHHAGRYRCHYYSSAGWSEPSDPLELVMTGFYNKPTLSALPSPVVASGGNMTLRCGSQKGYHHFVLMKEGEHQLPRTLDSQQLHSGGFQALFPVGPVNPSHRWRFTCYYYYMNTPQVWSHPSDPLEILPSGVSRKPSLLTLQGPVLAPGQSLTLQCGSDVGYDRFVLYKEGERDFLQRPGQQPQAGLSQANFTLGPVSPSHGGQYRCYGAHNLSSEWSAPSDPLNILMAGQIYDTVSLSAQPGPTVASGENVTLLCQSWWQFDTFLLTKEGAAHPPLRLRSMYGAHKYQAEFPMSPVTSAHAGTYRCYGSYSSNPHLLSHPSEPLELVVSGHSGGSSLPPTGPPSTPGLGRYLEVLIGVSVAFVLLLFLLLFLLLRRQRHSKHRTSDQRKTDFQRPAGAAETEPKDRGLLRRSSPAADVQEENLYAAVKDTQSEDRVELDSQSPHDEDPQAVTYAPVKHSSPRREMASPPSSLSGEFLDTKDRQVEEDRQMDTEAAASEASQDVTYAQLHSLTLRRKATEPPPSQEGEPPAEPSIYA
# T7 sequence (Q6PI73 other isoform, or with tags, fused parts or gaps): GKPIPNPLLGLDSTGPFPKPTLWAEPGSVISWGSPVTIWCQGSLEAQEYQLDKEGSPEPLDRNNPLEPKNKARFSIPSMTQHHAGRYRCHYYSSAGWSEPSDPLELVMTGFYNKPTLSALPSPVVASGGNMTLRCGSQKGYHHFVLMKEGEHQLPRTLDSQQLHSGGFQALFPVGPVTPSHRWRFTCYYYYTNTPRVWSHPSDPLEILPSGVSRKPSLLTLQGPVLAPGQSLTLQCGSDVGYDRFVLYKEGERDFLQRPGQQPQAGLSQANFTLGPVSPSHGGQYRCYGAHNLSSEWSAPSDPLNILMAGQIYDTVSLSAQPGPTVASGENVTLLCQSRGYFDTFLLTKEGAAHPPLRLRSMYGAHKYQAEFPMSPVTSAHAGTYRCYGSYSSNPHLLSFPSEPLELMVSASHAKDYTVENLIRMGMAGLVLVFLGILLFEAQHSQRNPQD
# T3 sequence (Q8N423 other isoform, or with tags, fused parts or gaps): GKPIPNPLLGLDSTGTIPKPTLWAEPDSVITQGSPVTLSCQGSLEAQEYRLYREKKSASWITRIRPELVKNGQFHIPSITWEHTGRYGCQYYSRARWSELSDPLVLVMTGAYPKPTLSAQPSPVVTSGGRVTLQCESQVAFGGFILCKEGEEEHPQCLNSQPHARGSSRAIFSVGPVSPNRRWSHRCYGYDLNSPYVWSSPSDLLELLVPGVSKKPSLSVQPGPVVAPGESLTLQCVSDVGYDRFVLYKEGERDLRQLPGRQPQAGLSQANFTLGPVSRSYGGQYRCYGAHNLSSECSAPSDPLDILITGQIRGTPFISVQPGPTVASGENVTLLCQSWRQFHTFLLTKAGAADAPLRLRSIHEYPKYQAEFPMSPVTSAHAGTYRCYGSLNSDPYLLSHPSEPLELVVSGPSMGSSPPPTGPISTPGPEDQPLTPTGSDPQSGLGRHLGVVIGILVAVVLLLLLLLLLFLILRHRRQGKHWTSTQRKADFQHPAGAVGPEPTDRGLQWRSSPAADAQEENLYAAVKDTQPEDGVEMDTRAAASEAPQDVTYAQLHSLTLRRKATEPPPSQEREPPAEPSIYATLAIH
# T10 sequence (Q8NHL6 other isoform, or with tags, fused parts or gaps limits assumed): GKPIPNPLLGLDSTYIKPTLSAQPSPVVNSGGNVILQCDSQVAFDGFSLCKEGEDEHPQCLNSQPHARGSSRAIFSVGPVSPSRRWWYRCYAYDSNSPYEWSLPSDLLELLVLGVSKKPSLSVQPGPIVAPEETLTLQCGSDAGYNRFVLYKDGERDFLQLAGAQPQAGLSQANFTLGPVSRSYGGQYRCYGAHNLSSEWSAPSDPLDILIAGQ
# T8 sequence (Q8NHL6 24-650): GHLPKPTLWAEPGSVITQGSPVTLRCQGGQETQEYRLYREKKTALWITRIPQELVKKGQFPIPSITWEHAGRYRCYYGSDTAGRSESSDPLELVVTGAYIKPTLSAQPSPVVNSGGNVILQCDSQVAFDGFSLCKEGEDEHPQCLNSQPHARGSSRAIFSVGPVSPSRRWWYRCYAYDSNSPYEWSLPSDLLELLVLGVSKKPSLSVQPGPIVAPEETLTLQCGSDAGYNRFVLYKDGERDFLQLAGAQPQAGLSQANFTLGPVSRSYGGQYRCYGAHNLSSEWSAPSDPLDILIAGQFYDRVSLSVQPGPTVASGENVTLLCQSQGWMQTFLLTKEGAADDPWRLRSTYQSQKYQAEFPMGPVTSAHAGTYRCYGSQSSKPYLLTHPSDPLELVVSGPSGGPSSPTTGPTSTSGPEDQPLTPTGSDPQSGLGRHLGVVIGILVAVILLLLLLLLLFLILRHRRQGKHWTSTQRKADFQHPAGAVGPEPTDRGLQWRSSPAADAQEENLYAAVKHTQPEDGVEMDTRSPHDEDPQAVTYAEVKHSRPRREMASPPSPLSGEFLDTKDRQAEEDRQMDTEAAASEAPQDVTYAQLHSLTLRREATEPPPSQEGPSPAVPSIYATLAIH
# T18 sequence (Q8NHL6 24-650): as above
# T17 sequence (chain, as listed by the source limits assumed): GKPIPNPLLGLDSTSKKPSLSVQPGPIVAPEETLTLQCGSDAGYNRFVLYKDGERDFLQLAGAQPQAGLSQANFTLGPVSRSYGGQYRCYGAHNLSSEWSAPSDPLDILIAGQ
# T13 sequence (Q8NHL6 other isoform, or with tags, fused parts or gaps limits assumed): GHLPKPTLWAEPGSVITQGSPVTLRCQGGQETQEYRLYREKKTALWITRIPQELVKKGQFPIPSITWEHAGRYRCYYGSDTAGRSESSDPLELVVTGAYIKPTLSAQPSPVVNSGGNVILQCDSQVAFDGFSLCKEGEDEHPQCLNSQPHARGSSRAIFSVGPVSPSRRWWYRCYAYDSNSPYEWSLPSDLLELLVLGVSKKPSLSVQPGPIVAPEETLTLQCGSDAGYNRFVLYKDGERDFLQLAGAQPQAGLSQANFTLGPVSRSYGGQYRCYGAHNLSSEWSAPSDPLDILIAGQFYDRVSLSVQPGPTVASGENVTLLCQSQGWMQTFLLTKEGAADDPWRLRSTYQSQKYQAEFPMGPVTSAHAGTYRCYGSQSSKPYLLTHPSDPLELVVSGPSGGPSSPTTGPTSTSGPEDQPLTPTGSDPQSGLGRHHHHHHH
# T5 sequence (Q8N6C8 other isoform, or with tags, fused parts or gaps): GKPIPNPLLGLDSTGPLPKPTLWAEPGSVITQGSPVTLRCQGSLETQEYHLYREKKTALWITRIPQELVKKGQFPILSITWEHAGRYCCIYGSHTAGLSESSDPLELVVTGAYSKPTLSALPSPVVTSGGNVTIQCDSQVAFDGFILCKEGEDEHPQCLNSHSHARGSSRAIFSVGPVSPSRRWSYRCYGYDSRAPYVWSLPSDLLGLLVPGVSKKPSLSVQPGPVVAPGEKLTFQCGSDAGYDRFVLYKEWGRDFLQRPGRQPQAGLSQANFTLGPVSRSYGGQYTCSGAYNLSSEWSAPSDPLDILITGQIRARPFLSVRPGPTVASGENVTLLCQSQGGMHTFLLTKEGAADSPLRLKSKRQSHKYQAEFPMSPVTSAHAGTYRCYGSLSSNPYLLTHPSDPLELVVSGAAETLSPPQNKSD
# T2 sequence (Q8NHJ6 other isoform, or with tags, fused parts or gaps): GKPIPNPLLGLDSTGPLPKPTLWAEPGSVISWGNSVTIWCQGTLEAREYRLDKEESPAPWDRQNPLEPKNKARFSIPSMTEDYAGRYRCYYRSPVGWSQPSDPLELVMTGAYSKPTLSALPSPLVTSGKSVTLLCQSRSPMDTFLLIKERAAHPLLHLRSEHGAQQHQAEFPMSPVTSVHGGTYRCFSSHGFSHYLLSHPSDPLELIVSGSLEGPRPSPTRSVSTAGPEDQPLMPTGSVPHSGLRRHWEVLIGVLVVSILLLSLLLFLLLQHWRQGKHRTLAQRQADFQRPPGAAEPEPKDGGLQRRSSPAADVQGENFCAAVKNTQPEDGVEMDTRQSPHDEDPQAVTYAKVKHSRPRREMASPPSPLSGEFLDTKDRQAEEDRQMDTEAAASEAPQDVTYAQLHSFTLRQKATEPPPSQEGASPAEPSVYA
# T6 sequence (P59901 other isoform, or with tags, fused parts or gaps): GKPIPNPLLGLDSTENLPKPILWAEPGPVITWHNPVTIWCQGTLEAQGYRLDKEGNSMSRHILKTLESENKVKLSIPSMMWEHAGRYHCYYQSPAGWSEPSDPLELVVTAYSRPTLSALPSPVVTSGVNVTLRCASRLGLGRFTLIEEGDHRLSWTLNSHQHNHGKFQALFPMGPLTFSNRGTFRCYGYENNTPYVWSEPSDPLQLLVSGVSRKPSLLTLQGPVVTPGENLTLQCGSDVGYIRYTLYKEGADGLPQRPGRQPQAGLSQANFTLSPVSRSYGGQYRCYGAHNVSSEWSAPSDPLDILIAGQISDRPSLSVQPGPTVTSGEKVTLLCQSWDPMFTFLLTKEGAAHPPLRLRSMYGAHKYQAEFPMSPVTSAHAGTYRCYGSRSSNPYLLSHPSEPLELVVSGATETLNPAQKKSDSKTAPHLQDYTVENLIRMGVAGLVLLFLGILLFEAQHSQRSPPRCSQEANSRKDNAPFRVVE
# T15 sequence (Q8NHL6 other isoform, or with tags, fused parts or gaps mutant): as the sequence (Q8NHL6 24-650) above, with E34A, R36A, Y76I, A82S, R84L counted along it
Binder,binding result [1],binding result [2],binding result [3],binding result [4],binding result [5],binding result [6],binding result [7],EC50 [8] [µg/mL],binding result [9],binding result [10],binding result [11],binding result [12],Kd [13] [nM],binding result [14],binding result [15],binding result [16],binding result [17],EC50 [18] [µg/mL],binding result [20],binding result [21],other results
"27H5 (antibody, human IgG1, V domains shown) VH: QVQLKESGPGLVAPSQSLSITCTVSGFSLTSYGVSWVRQPPGKGLEWLGVIWGDGNTNYHSALISRLSISKDNSKSQVFLKLNSLQTDDTATYYCARTNWDGWFAYWGQGTLVTVSA VL: DIVMTQSHKFMSTSVGDRVSITCKASQDVGTAVAWYQQKPGQSPKLLIYWASTRHTGVPDRFTGSGSGTDFTLTISNVQSEDLADYFCQQYRSYPLGTFGGGTKLEIK",no binding,no binding,no binding,no binding,no binding,no binding,no binding,0.52,no binding,no binding,no binding,no binding,13.9,binds,no binding (tested: about 20 µg/ml),no binding,no binding,,,,
"26D8 (antibody, human IgG1, V domains shown) VH: QVQLQQSGAELVKPGASVKLSCKASGYTFTEHTIHWIKQRSGQGLEWIGWFYPGSGSMKYNEKFKDKATLTADKSSSTVYMELTRLTSEDSAVYFCARHTNWDFDYWGQGTTLTVSS VL: DIVLTQSPASLAVSLGQRATISCKASQSVDYGGDSYMNWYQQKPGQPPKLLIYAASNLESGIPARFSGSGSGTDLTLNIHPVEEDDAAMYYCQQSNEEPWTFGGGTKLEIK",no binding,no binding,no binding,no binding,no binding,no binding,no binding,0.15,no binding,no binding,,,,,,,no binding,0.11,no binding,no binding,CD137 expression on ILT2-positive primary NK cells [28]: 2 fold; CD137 expression on NK cells of urothelial cancer patients with HLA-A2-expressing B cells [28]: > 2 fold; Kd [22]: 0.4 nM; koff [22]: 0.00022 s⁻¹; kon [22]: 620000 M⁻¹ s⁻¹; EC50 (read off the curve) [29]: ~0.3 µg/mL; binding result [23]: no binding (tested: about 20 µg/ml); binding result [24]: no binding (tested: about 20 µg/ml); EC50 (read off the curve) [25]: ~0.2 µg/mL; binding result [26]: binds; binding result [27]: no binding

# Second part, led by results:
binding result [1],binding result [2],binding result [3],binding result [4],binding result [5],binding result [6],binding result [7],EC50 [8] [µg/mL],binding result [9],binding result [10],binding result [11],binding result [12],Kd [13] [nM],binding result [14],binding result [15],binding result [16],binding result [17],EC50 [18] [µg/mL],binding result [20],binding result [21],Binder,other results
no binding,no binding,no binding,no binding,no binding,no binding,no binding,0.35,no binding,no binding,no binding,no binding,4.4,binds,no binding (tested: about 20 µg/ml),no binding,no binding,0.48,,,"3H5 (antibody, human IgG1, V domains shown) VH: QVQLKESGPGLVAPSQSLSITCTVSGFSLTSYGVSWVRQPPGKGLEWLGVIWGDGSTNYHSALISRLSISKDNSKSQVFLKLNSLQTDDTATYYCAKPRWDDYAMDYWGQGTSVTVSS VL: DIQMTQTTSSLSASLGDRVTISCRASQDISNYLNWYQQKPDGTVKLLIYYTSRLHSGVPSRFSGSGSGTDYSLTISNLEQEDIATYFCQQGNTLWTFGGGTKLEIK",EC50 (read off the curve) [19]: ~0.9 µg/mL
no binding,no binding,no binding,no binding,no binding,no binding,no binding,0.25,no binding,no binding,,,,,,,no binding,0.33,no binding,no binding,"27C10 (antibody, human IgG1, V domains shown) VH: EVQLQESGPGLVKPSQSLSLTCSVTGYSITSGYYWNWIRQFPENKLEWMGYIRYDGSNNYNPSLNNRISITRDASKNQFFLKLNSVTTEDTATYYCARGWLLWFYAVDYWGQGTSVTVSS VL: DVVMTQTPLSLPVSLGDQASISCRSSQSIVHTNGNTYLEWYLQKSGQSPKLLIYKVSNRLSGVPDRFSGSGSGTDFTLKISRVEAEDLGIYYCFQGSHVPWTFGGGTKLEIK",koff [22]: 0.0003 s⁻¹; EC50 (read off the curve) [23]: ~0.4 µg/mL; binding result [24]: binds; binding result [25]: binds; binding result [26]: binds; binding result [27]: no binding
